Results: patent US20190031751A1 (University of Texas, published 2019)

T1: Human epidermal growth factor (EGF)-like domain multiple 6 (EGFL6) protein (human, UniProt Q8IUX8 22-553)
T1 construct: Secreted protein; also called human EGFL6; recombinant human EGFL6
T1 sequence (looked up): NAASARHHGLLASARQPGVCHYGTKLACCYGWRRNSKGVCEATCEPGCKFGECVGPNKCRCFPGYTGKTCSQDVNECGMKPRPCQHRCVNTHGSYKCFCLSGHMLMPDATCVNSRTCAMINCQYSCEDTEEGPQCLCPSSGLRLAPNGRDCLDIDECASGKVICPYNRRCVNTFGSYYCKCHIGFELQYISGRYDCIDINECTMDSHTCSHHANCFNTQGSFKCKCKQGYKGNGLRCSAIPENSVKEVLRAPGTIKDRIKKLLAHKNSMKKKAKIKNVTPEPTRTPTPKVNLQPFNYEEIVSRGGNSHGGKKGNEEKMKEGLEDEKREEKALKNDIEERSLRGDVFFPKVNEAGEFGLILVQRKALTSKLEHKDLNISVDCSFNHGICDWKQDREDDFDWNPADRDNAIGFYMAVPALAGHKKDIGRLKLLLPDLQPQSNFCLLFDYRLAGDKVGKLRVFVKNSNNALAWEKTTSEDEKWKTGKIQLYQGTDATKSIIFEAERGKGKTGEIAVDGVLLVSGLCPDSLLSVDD

B1: E1-142 monoclonal antibody (antibody, V domains shown)
VH: QSLEESGGDLVKPGASLTLTCTASGFTINNYNINWVRQAPGKGLEWIARIWNGDGSTYYASWAKGRFTISKTSSTTVTLQMTSLTAADTATYFCARNFNLWGPGTLVTISS
VL: ELVLTQTPSPVSAAVGGTVTINCQSSASVYSNNYLSWFQQKPGQPPKPLIYYASTLASGVPSRFKGSGSGTQFTLTISDVQCDDAATYYCAGDYSSSSDMCIFGGGTELEIK
notes: Rabbit variable domains
B2: E1-38 monoclonal antibody (antibody, V domains shown)
VH: EQSVKESGGDLVKPEGSLTLTCTASGFSFNSGYWVCWVRQAPGKGLEWIACIYTSSPTGAIYYATWAKGRFTISQTSSTTVTLQMTSLTAADTATYFCTRDNFGGGGSASKLWGPGTLVTISS
VL: ELVMTQTPSSKSVPVGGTVTIDCQASESVYSNNRCAWYQQKPGQPPKLLIYYASTLASGVPSRFKCSGSGTRFTLTISGVQCEDAATYYCAGYKTADSDGLGFGGGTEVEIK
notes: Rabbit variable domains
B3: E2-93 monoclonal antibody (antibody, V domains shown)
VH: QSVKESEGGLVQPEGSLTLTCKASGFSFSSYGVNWVRQAPGKGLEWIAYIGLSSEITYYAGWAKGRFTISKPSSTTVTLQMTSLTAADTATYFCVRDLYHSNGLWGPGTLVTISS
VL: ELDLTQTPSPVSAAVGGTVTVSCQASESVYNNNRLSWYQQKPGQPPKLLIYYASTLASGVPSRFSGSGSGTQFTLTISSVQCADAATYYCVAFKGYGTDGNAFGGGTEVEIK
notes: Rabbit variable domains; also called Mab #93; mAb93
B4: E2-135 monoclonal antibody (antibody, V domains shown)
VH: QSVKESEGDLVKPGASLTLTCKASGFDFSSSYFMCWVRQAPGRGLEWIACIYTVISRKTYYASWAKGRFTISKTSATTVDLQMTSLTAADTATYFCARSATIERLDLWGQGTLVTVSS
VL: ELDLTQTPSPVSAPVGGTVTINCQASESVYNNYRLSWYQQKPGQPPKLLIYAASTLASGVPSRFKGSGSGTQFTLAISDVVCDDAATYYCVGYKSGYIDSIPFGGGTEVVVK
notes: Rabbit variable domains; also called mAb135
B5: E1-34 monoclonal antibody (antibody, V domains shown)
VH: EQSVKESGGGLVQPEGSLTLTCTASGFSFSSIYWICWVRQAPGKGLELIACIQITSGITYYASWAKGRFTISKMSSTTVTLQMTSLTVADTATYFCGRRGYGAYAGTGASDLWGPGTLVTVSS
VL: ELDLTQTASSVSAAVGGTVTINCQSSQSVYNNNNLAWYQQKPGQPPKLLIYEASKLASGVPSRFKGSGSGTQFTLTISGVQCDDAATYYCAGGYAGYIWAFGGGTEVVVK
notes: Rabbit variable domains

Target: T1, Human epidermal growth factor …
Assay: ELISA titration on coated EGFL6, 4-parameter curve fit
Description: Binding of EGFL6 by monoclonal antibodies was first screened by ELISA using supernatants collected from the B cell cultures (FIG. 2). ELISA titration was used to determine the binding affinity of a panel of monoclonal antibodies to EGFL6 antigen (FIG. 3). Binding constants (KD and/or EC 50) of a panel of monoclonal antibodies were estimated using the 4 parameter curve fitting with Prism GraphPad program. For Biacore analysis, all experiments were performed at 25° C. at a flow rate of 45 μl/min. An anti-human IgG Fc antibody (from ThermoFisher, at 50 μg/ml each in acetate buffer, pH 5.0) was immobilized onto a carboxymethyl dextran sensorchip (CMS) using amine coupling procedures based on instruction from the manufacturer. Purified rabbit/human chimeric antibody to be tested was diluted at a concentration of 5 μg/ml in 0.5% P20, HBS-EP buffer and injected on FC2 to reach 500 to 1000 RU. FC1 was used as the reference cell. Specific signals correspond to the difference of signals obtained on FC2 versus FC1. The analyte (recombinant human EGFL6, apparent molecular weight 60 kDa on SDS-PAGE gel) was injected during 90 sec at series of concentration dilutions (100, 50, 25, 12.5, 6.25, and 3.13, 1.56 nM) in 0.5% P20, HBS-EP buffer. These concentrations were prepared from stock solution in 0.5% P20, HBS-EP. The dissociation phase of the analyte was monitored over a 30 minutes period. Running buffer was also injected under the same conditions as a double reference. After each running cycle, both flow cells were regenerated by injecting 20 to 45 μl of Glycine-HCl buffer pH 1.5. Binding KD on EGFL6 was calculated by koff/kₒₙ kinetic rate for each EGFL6 monoclonal antibodies (Table 3).

Binder	EC50
B1	1.91 ng/mL
B2	5.81 ng/mL
B3	0.37 ng/mL
B4	0.44 ng/mL
B5	0.78 ng/mL
